Experimental data reported in patent US20200024330A1.

Assays:
[1] = molecular target: HIV-1 Env of isolate CAP45 (HIV-1); assay: cell-based or functional assay
[2] = molecular target: HIV-1 Env of isolate Du172 (HIV-1); assay: cell-based or functional assay
[3] = molecular target: HIV-1 Env of isolate REJ04541 (HIV-1); assay: cell-based or functional assay
[4] = molecular target: HIV-1 Env of isolate ZM214 (HIV-1); assay: cell-based or functional assay
[5] = molecular target: HIV-1 Env of isolate ZM233 (HIV-1); assay: cell-based or functional assay
[6] = molecular target: HIV-1 Env of isolate 92UG031 (pseudovirus) (HIV-1); assay: cell-based or functional assay
[7] = molecular target: HIV-1 Env of isolate 98CN006 (subtype CRF08 BC), on pseudovirus (HIV-1); assay: cell-based or functional assay
[8] = molecular target: HIV-1 Env of isolate APV_17 (HIV-1); assay: cell-based or functional assay
[9] = molecular target: HIV-1 Env of isolate MG RM-A-006 (pseudovirus) (HIV-1); assay: cell-based or functional assay
[10] = molecular target: HIV-1 Env of isolate MG RM-A-008 (pseudovirus) (HIV-1); assay: cell-based or functional assay
[11] = molecular target: HIV-1 Env of isolate MG RM-A-010 (pseudovirus) (HIV-1); assay: cell-based or functional assay
[12] = molecular target: HIV-1 Env of isolate MGRM-AE-002 (pseudovirus) (HIV-1); assay: cell-based or functional assay
[13] = molecular target: HIV-1 Env of isolate MGRM-AE-006 (pseudovirus) (HIV-1); assay: cell-based or functional assay
[14] = molecular target: HIV-1 Env of isolate MGRM-D-005 (subtype D), on pseudovirus (HIV-1); assay: cell-based or functional assay
[15] = molecular target: HIV-1 JR-CSF Env I415A (HIV-1 (isolate JR-CSF)) (UniProt P20871); assay: cell-based or functional assay
[16] = molecular target: HIV-1 JR-CSF Env L416A (HIV-1 (isolate JR-CSF)) (UniProt P20871); assay: cell-based or functional assay
[17] = molecular target: HIV-1 JR-CSF Env N332A (HIV-1 isolate JR-CSF) (UniProt P20871); assay: cell-based or functional assay
[18] = molecular target: HIV-1 JR-CSF Env N392Q (HIV-1 (isolate JR-CSF)) (UniProt P20871); assay: cell-based or functional assay
[19] = molecular target: HIV-1 JR-CSF Env N411A (HIV-1 (isolate JR-CSF)) (UniProt P20871); assay: cell-based or functional assay
[20] = molecular target: HIV-1 JR-CSF Env P313A (HIV-1 JR-CSF) (UniProt P20871); assay: cell-based or functional assay
[21] = molecular target: HIV-1 JR-CSF Env R327A (HIV-1 isolate JR-CSF) (UniProt P20871); assay: cell-based or functional assay
[22] = molecular target: HIV-1 JR-CSF Env S334A (HIV-1 isolate JR-CSF) (UniProt P20871); assay: cell-based or functional assay
[23] = molecular target: HIV-1 JR-CSF Env T297A (HIV-1 JR-CSF) (UniProt P20871); assay: cell-based or functional assay
[24] = molecular target: HIV-1 JR-CSF Env T319A (HIV-1 isolate JR-CSF) (UniProt P20871); assay: cell-based or functional assay
[25] = molecular target: HIV-1 APV17 Env (pseudovirus) (HIV-1); assay: cell-based or functional assay
[26] = molecular target: Endo H treated JR-FL gp120 (HIV-1 (isolate JR-FL)); assay: ELISA on coated gp120; EC50 by nonlinear regression
[27] = molecular target: JR-FL gp120 ΔV3 (HIV-1 (isolate JR-FL)); assay: as above
[28] = molecular target: HIV-1 Env of isolate MGRM-C-028 (subtype C), on pseudovirus (HIV-1); assay: cell-based or functional assay
[29] = molecular target: HIV-1 Env of isolate MGRM-F1-018 (clade F), on pseudovirus (HIV-1); assay: cell-based or functional assay
[30] = molecular target: HIV-1 envelope glycoprotein (Env) of isolate MGRM-Chronic-B-018, on pseudovirus (HIV-1); assay: cell-based or functional assay
[31] = molecular target: HIV-1 envelope glycoprotein (Env) of isolate MGRM-Chronic-B-023, on pseudovirus (HIV-1); assay: cell-based or functional assay
[32] = molecular target: HIV-1 Env of isolate 92TH021 (clade AE) (HIV-1); assay: cell-based or functional assay
[33] = molecular target: HIV-1 Env of isolate 93UG077 (clade A) (HIV-1); assay: cell-based or functional assay
[34] = molecular target: HIV-1 Env of isolate MGRM-C-028 (clade C) (HIV-1); assay: cell-based or functional assay
[35] = molecular target: aMLV envelope (negative control pseudovirus) (aMLV); assay: cell-based or functional assay
[36] = molecular target: HIV-1 Env of isolate MGRM-F1-022 (clade F), on pseudovirus (HIV-1); assay: cell-based or functional assay
[37] = molecular target: HIV-1 APV13 Env (clade B pseudovirus) (HIV-1); assay: cell-based or functional assay
[38] = molecular target: HIV-1 MGRM-D-018 Env (clade D pseudovirus) (HIV-1); assay: cell-based or functional assay
[39] = molecular target: HIV-1 NL43 Env (clade B pseudovirus) (HIV-1); assay: cell-based or functional assay

1443_C16 (PG16) (TCN-116) (antibody)
IC50, pseudovirus neutralization (TZM-bl) [1]: < 0.01 µg/mL | IC50, pseudovirus neutralization (TZM-bl) [2]: < 0.01 µg/mL | IC50, pseudovirus neutralization (TZM-bl) [3]: < 0.01 µg/mL | IC50, pseudovirus neutralization (TZM-bl) [4]: > 25 µg/mL | IC50, pseudovirus neutralization (TZM-bl) [5]: < 0.01 µg/mL

VRC01 (antibody)
IC50 (µg/mL), pseudovirus neutralization [6]: 0.469 µg/mL | IC50, pseudovirus neutralization [7]: 0.644 µg/mL | IC50 [8]: 0.477 µg/mL | IC50 (µg/mL), pseudovirus neutralization [9]: 0.521 µg/mL | IC50 (µg/mL), pseudovirus neutralization [10]: 0.303 µg/mL | IC50 (µg/mL), pseudovirus neutralization [11]: 0.325 µg/mL | IC50 (µg/mL), pseudovirus neutralization [12]: 0.217 µg/mL | IC50 (µg/mL), pseudovirus neutralization [13]: 4.65 µg/mL | IC50, pseudovirus neutralization [14]: > 50 µg/mL

PGT-122 (antibody)
Fold IC50 increase relative to wild-type [15]: 0.4 fold | Fold IC50 increase relative to wild-type [16]: 1 fold | Fold IC50 increase relative to wild-type [17]: > 200 fold | Fold IC50 increase relative to wild-type [18]: 1 fold | Fold IC50 increase relative to wild-type [19]: 0.7 fold | Fold IC50 increase relative to wild-type [20]: 0.4 fold | Fold IC50 increase relative to wild-type [21]: 1.7 fold | Fold IC50 increase relative to wild-type [22]: > 50 fold | Fold IC50 increase relative to wild-type [23]: 0.6 fold | Fold IC50 increase relative to wild-type [24]: 0.5 fold

4838_L06 (PGT-121) (antibody)
neutralization IC80 [25]: 0.371 µg/mL | neutralization IC90 [25]: 0.799 µg/mL | neutralization IC95 [25]: 1.55 µg/mL

PGT-121 (antibody)
Fold IC50 increase relative to wild-type [15]: 0.6 fold | Fold IC50 increase relative to wild-type [16]: 0.6 fold | Fold IC50 increase relative to wild-type [17]: > 200 fold | Fold IC50 increase relative to wild-type [18]: 0.9 fold | Fold IC50 increase relative to wild-type [19]: 0.4 fold | Fold IC50 increase relative to wild-type [20]: 0.5 fold | Fold IC50 increase relative to wild-type [21]: 2.5 fold | Fold IC50 increase relative to wild-type [22]: > 50 fold | Fold IC50 increase relative to wild-type [23]: 0.7 fold | Fold IC50 increase relative to wild-type [24]: 1.3 fold | EC50 [26]: > 10 µg/mL | EC50 [27]: > 10 µg/mL

1496_C09 (PG9) (TCN-109) (antibody)
IC50 (µg/mL), pseudovirus neutralization [28]: 0.067 µg/mL | IC50 (µg/mL), single-round pseudovirus neutralization [29]: 0.019 µg/mL | IC50, pseudovirus neutralization [30]: 0.216 µg/mL | IC50, pseudovirus neutralization [31]: 0.027 µg/mL

5141_B17 (PGT-126) (antibody)
IC50 [25]: 0.501 µg/mL | IC80 [25]: 4.43 µg/mL | IC90 [25]: > 10 µg/mL | IC95 [25]: > 10 µg/mL

5147_N06 (PGT-130) (antibody)
neutralization IC50 [32]: 0.0082 µg/mL | neutralization IC80 [32]: 0.0261 µg/mL | neutralization IC90 [32]: 0.0513 µg/mL | neutralization IC95 [32]: 0.0963 µg/mL | neutralization IC50 [33]: > 10 µg/mL | neutralization IC80 [33]: > 10 µg/mL | neutralization IC90 [33]: > 10 µg/mL | neutralization IC95 [33]: > 10 µg/mL | neutralization IC50 [34]: > 10 µg/mL | neutralization IC80 [34]: > 10 µg/mL | neutralization IC90 [34]: > 10 µg/mL | neutralization IC95 [34]: > 10 µg/mL | neutralization IC50 [35]: > 10 µg/mL | neutralization IC80 [35]: > 10 µg/mL | neutralization IC90 [35]: > 10 µg/mL | neutralization IC95 [35]: > 10 µg/mL

PGV04 (antibody)
IC50 (µg/mL), pseudovirus neutralization [28]: 0.149 µg/mL | IC50 (µg/mL), single-round pseudovirus neutralization [29]: 0.027 µg/mL | IC50 (µg/mL), single-round pseudovirus neutralization [36]: 0.072 µg/mL | IC50, pseudovirus neutralization [30]: 0.164 µg/mL | IC50, pseudovirus neutralization [31]: 0.139 µg/mL

4877_D15 (PGT-122) (antibody)
Neutralization by PGT-122, IC50 [37]: 0.992 µg/mL | Neutralization by PGT-122, IC80 [37]: 4.14 µg/mL | Neutralization by PGT-122, IC90 [37]: 8.6 µg/mL | Neutralization by PGT-122, IC95 [37]: > 10 µg/mL | Neutralization by PGT-122, IC50 [38]: 0.0115 µg/mL | Neutralization by PGT-122, IC80 [38]: 0.035 µg/mL | Neutralization by PGT-122, IC90 [38]: 0.0674 µg/mL | Neutralization by PGT-122, IC95 [38]: 0.125 µg/mL | Neutralization by PGT-122, IC50 [39]: > 10 µg/mL | Neutralization by PGT-122, IC80 [39]: > 10 µg/mL | Neutralization by PGT-122, IC90 [39]: > 10 µg/mL | Neutralization by PGT-122, IC95 [39]: > 10 µg/mL
